Measured values taken from patent US20040157268.

Target: β2 adrenergic receptor modified to have a Flag epitope at the amino terminus and a TEV protease site within the third intracellular loop between residues 254 and 260 of the native protein

B1: Tobacco Etch Virus (TEV) protease, recombinant (protein)
chain: GESLFKGPRDYNPISSTICHLTNESDGHTTSLYGIGFGPFIITNKHLFRRNNGTLLVQSLHGVFKVKNTTTLQQHLIDGRDMIIIRMPKDFPPFPQKLKFREPQREERICLVTTNFQTKSMSSMVSDTSCTFPSSDGIFWKHWIQTKDGQCGSPLVSTRDGFIVGIHSASNFTNTNNYFTSVPKNFMELLTNQEAQQWVSGWRLNADSVLWGGHKVFMSKPEEPFQPVKEATQLMNELVYSQ
Ratio of TEV-cleaved to uncleaved receptor (axis 'cut/uncut'), from the blot of FIG. 11B: Two bars, no error bars and no printed values. The 'Control' bar ends just above the 0.3 tick. The 'Isoproterenol' bar ends between the 1.2 and 1.5 ticks, several times higher than the control. | TEV cleavage of the receptor (Western blot; ratio of cleaved to uncleaved receptor), with and without the agonist isoproterenol: TEV cleavage of the 12 adrenergic receptor was enhanced in the presence of isoproterenol | TEV cleavage of the receptor's third-loop TEV site, seen as the lower (cleaved, N-terminal) band on a Western blot probed with M1 antibody: No lower band without TEV (TEV-/ISO-). Very faint lower band with TEV alone (TEV+/ISO-). Strong lower band and a weaker upper band with TEV plus isoproterenol (TEV+/ISO+).
